Results: patent US20220143214A1

Key:
[1] = target: LY6A (Ly6a, C57BL/6J mouse) (mouse (C57BL/6J)) (UniProt P05533); assay: qPCR of viral genomes bound to Ly6a-transfected HEK293T cells
[2] = target: LY6A (Ly6a, C57BL/6J mouse) (mouse (C57BL/6J)) (UniProt P05533); assay: qPCR of viral genomes bound to BMVECs treated with Ly6a sgRNAs (CRISPR/SaCAS9)
[3] = target: LY6A (Ly6a, C57BL/6J mouse) (mouse (C57BL/6J)) (UniProt P05533); assay: binding (qPCR) and transduction of cells with ectopic LY6A
[4] = target: LY6A (Ly6a, C57BL/6J mouse) (mouse (C57BL/6J)) (UniProt P05533); assay: cell-based or functional assay

UniProt P05533, sequence (P05533 27-112 limits assumed): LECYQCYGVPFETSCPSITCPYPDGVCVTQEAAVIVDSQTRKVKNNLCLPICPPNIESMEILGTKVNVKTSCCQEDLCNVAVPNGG

AAV-PHP.eB was tested, and the fold increase in binding on Ly6a expression [1] was > 50 fold, the reduction in binding after Ly6a disruption [2] was 50% and the fold increase in binding and transduction on LY6A expression [3] was > 30 fold. The transduction of HEK293T cells (Luciferase assay) [4] was 30 fold and the transduction of hCMEC cells (firefly luciferase assay) (logs (base 10)) [4] was 2.
